Test results as given in US7115262.

What was measured:
[1] = molecular target: HIV-1 Env (LAV) (HIV-1 (LAV)) (UniProt P03377); test: cell-based or functional assay
[2] = molecular target: wildtype (WT) SF162 Env (HIV-1 (SF162)) (UniProt P19550); test: cell-based or functional assay

| % control, Standard Assay (CXCR4 and CD4 on target cells), 17b at 0.1 µg/ml [1] [% control] | % control, Standard Assay (CXCR4 and CD4 on target cells), 17b at 0.5 µg/ml [1] [% control] | % control, Standard Assay (CXCR4 and CD4 on target cells), 17b at 1 µg/ml [1] [% control] | % control, Standard Assay (CXCR4 and CD4 on target cells), 17b at 5 µg/ml [1] [% control] | % control, sCD4 Assay (CXCR4 alone on target cells, 200 nM soluble CD4 added), 17b at 0.1 µg/ml [1] [% control] | % control, sCD4 Assay (CXCR4 alone on target cells, 200 nM soluble CD4 added), 17b at 0.5 µg/ml [1] [% control] | % control, sCD4 Assay (CXCR4 alone on target cells, 200 nM soluble CD4 added), 17b at 1 µg/ml [1] [% control] | % control, sCD4 Assay (CXCR4 alone on target cells, 200 nM soluble CD4 added), 17b at 5 µg/ml [1] [% control] | β-gal, Standard Assay (CXCR4 and CD4 on target cells), 17b at 0.1 µg/ml [1] | β-gal, Standard Assay (CXCR4 and CD4 on target cells), 17b at 0.5 µg/ml [1] | β-gal, Standard Assay (CXCR4 and CD4 on target cells), 17b at 1 µg/ml [1] | β-gal, Standard Assay (CXCR4 and CD4 on target cells), 17b at 5 µg/ml [1] | β-gal, sCD4 Assay (CXCR4 alone on target cells, 200 nM soluble CD4 added), 17b at 0.1 µg/ml [1] | β-gal, sCD4 Assay (CXCR4 alone on target cells, 200 nM soluble CD4 added), 17b at 0.5 µg/ml [1] | β-gal, sCD4 Assay (CXCR4 alone on target cells, 200 nM soluble CD4 added), 17b at 1 µg/ml [1] | β-gal, sCD4 Assay (CXCR4 alone on target cells, 200 nM soluble CD4 added), 17b at 5 µg/ml [1] | Substance | β-gal activity, vaccinia-based reporter gene cell fusion assay, +sCD4 (100 nM), CCR5 target cells without CD4; WT Env duplicate [2] | β-gal activity, vaccinia-based reporter gene cell fusion assay, +sCD4 (100 nM), CCR5 target cells without CD4; WT Env mean [2] |
| --- | --- | --- | --- | --- | --- | --- | --- | --- | --- | --- | --- | --- | --- | --- | --- | --- | --- | --- |
| 93.4 | 104 | 94.1 | 119 | 114 | 39.2 | 14.1 | 0 | 39.5 | 43.9 | 39.8 | 50.5 | 13.6 | 4.66 | 1.68 | 0 | MAb 17b (antibody) | – | – |
| – | – | – | – | – | – | – | – | – | – | – | – | – | – | – | – | soluble CD4 (from UniProt P01730 26-208) (receptor) | 6.6 | 5.9 |
